From publication PMC4966504 (mAbs, 2015)
Numbering of substitutions follows the chain as printed. In names and notes the source's numbering stands. Each block holds one binder with its values, some of them ahead of it.

What was measured:
Assay in all cases: flow cytometry on cells
[1] = molecular target: human CXCR4, endogenous on 293X cells (Homo sapiens, UniProt P61073)
[2] = molecular target: human CXCR4 D182A (Homo sapiens, UniProt P61073-1, D182A)
[3] = molecular target: human CXCR4 D187RFY190A4 (Homo sapiens, UniProt P61073, D187RFY190A4)
[4] = molecular target: human CXCR4 D181A (Homo sapiens, UniProt P61073-1, D181A)
[5] = molecular target: human CXCR4 N176VSE179A4 (Homo sapiens, UniProt P61073, N176VSE179A4)
[6] = molecular target: human CXCR4 A180D (Homo sapiens, UniProt P61073-1, A180D)
[7] = molecular target: human CXCR4 E179A (Homo sapiens, UniProt P61073-1, E179A)
[8] = molecular target: human CXCR4 (G-protein C-X-C chemokine receptor 4), expressed on CHO cells (Homo sapiens, UniProt P61073-1)
[9] = molecular target: human CXCR4 D181DRYI185A5 (Homo sapiens, UniProt P61073, D181DRYI185A5)
[10] = molecular target: human CXCR4 L194W195A2 (Homo sapiens, UniProt P61073, L194W195A2)
[11] = molecular target: human CXCR4 P191A (Homo sapiens, UniProt P61073-1, P191A)
[12] = molecular target: human CXCR4 A175D (Homo sapiens, UniProt P61073-1, A175D)

B4: MEDI3185 variant VH G54/S55/N56 to Ala (CDR2H) (antibody, V domains shown)
VH: QVQLVESGGGVVQPGRSLRLSCAASGFTFSNYVMHWVRQAPGKGLEWVAVIWYDAAAKYYADSVKGRFTISRDNSKNTLSLQMNSLRAEDTAVYYCERGEGYYGSGSRYRGYYYGMDVWGQGTTVTVSS
VL: DIQMTQSPSSLSASVGDRVTITCRASQGIRTDLGWYQQKPGKAPKRLIYAASSLQSGVPSRFSGSGSGTEFTLTISSLQPEDFATYYCLQHNSYPRTFGQGTKVEIK
- binding result [1]: binds

B5: MEDI3185 variant VL A50/A51 to Gly, S52 to Ala (CDR2L) (antibody, V domains shown)
VH: B4 VH with A55G, A56S, A57N
VL: B4 VL with A50G, A51G, S52A
- binding result [1]: binds

B6: MEDI3185 (antibody, V domains shown)
VH: B4 VH with A55G, A56S, A57N
VL: B4 VL
- Kd [2]: 0.32 nM
- Kd [3]: 0.37 nM
- Kd [4]: 0.31 nM
- Kd [5]: 0.37 nM
- Kd [6]: 0.32 nM
- Kd [7]: 0.25 nM
- Kd [8]: 0.32 nM
- Kd [9]: 0.28 nM
- Kd [10]: 0.3 nM
- Kd [11]: 0.36 nM
- Kd [12]: 0.21 nM

B8: MEDI3185 variant VL N92/S93/Y94 to Ala (CDR3L) (antibody, V domains shown)
VH: B4 VH with A55G, A56S, A57N
VL: B4 VL with N92A, S93A, Y94A
- binding result [1]: binds

Results, then the binder that gave them:

- binding result [1]: binds
B1: MEDI3185 variant VH W52/Y52A/D53 to Ala (CDR2H) (antibody, V domains shown)
VH: B4 VH with W52A, Y53A, D54A, A55G, A56S, A57N
VL: B4 VL

- binding result [1]: binds
B2: MEDI3185 variant VL P95 to Ala (CDR3L) (antibody, V domains shown)
VH: B4 VH with A55G, A56S, A57N
VL: B4 VL with P95A

- binding result [1]: binds
B3: MEDI3185 variant VH N31A/Y32A/V33A (CDR1H) (antibody, V domains shown)
VH: B4 VH with N31A, Y32A, V33A, A55G, A56S, A57N
VL: B4 VL

- binding result [1]: binds
B7: MEDI3185 variant VL Q27A/G28A/I29A (CDR1L) (antibody, V domains shown)
VH: B4 VH with A55G, A56S, A57N
VL: B4 VL with Q27A, G28A, I29A
